Experimental data: patent US20100292089A1 (CYTOS BIOTECHNOLOGY, published 2010)

B1: Qb#8 whole IgG2 (antibody, V domains shown)
VH: QVQLQESGGGWVQSGGSLRLSCAASGFSFSSYAMSWVRQAPGKGLEWVSAMSPIGGSTFYADSVKGRFTISRDNSKNTLFLQMNSLRAEDTAVYYCAKDAVVTAVGLGRYFDLWGRGTLVSVSS
VL: ELVVTQEPSVSGAPGQSVTISCTGGSSNIGASYDVHWYKQLPGAAPILLIYANYIRPSGVPDRFSASKSGTSASLAITGLQAEDEADYYCQSYDSSLSGVVFGGGTKLTVLG
notes: domain: γ2 heavy chain constant region; also called Qβ#8 IgG2; pCB15-Qb#8-IgG2 product; not shown: human κ light chain constant region (vector pCMV-LC)
B2: Qb#5 whole IgG2 (antibody, V domains shown)
VH: EVQLVQSGPGLVKPSETLSLTCTVSGGSISSTSYSWGWIRQPPGKGLEWIATVSYSGRSYSNPSLKSRVTTSVDTSKNQFSLRLGSVTAADTAVYYCARLYYIWRSYHSGRFDYWGQGTLVPVSS
VL: ELVLTQPPSVSGAPGQRVSISCTGSSSNIGARYDVHWYQQLPGTAPKLLIYGNTNRPSGVPDRFSGSKSGSSASLAITGLQAEDEADYYCQSYDRSLSGVVFGGGTKLTVLG
notes: domain: γ2 heavy chain constant region; also called Qβ#5 IgG2; pCB15-Qb#5-IgG2 product; not shown: human κ light chain constant region (vector pCMV-LC)
B3: Qb#3 whole IgG2 (antibody, V domains shown)
VH: QVQLQESGPGLVKPSETLSLTCTVSGGSISSGNYYWSWIRQTPEKGLEWLGYVHYTGSSKLNPSLKSRVTISVDTYTNQFSLSLSSMTAADTAVYYCARGKNCANDICYIGSWFDPWGQGTLVTVSS
VL: ELVMTQSPSSLSASVGDRVTITCRASQGVSRALAWYQQKPGNPPKLLIYDASNLQSGVPSRFSGGGSGTEFILTISSLQPEDFATYYCQQYNAYPWTFGQGTKLEIK
notes: domain: γ2 heavy chain constant region; also called Qβ#3 IgG2; pCB15-Qb#3-IgG2 product; not shown: human κ light chain constant region (vector pCMV-LC)
B4: Qb#2 whole IgG2 (antibody, V domains shown)
VH: EVQLLESGPGLVKPSETLSLTCTVSGGSISSGNYYWSWIRQTPEKGLEWLGYVHYTGSSKLNPSLKSRVTISVDTYTNQFSLSLSSMTAADTAVYYCARGKNCANDICYIGSWFDPWGQGTLVTVSS
VL: ELGLTQPPSVSGAPGQRVTISCTGSSSNIGRFDVHWYQQLPGTAPKLLIYGNTNRPSGVPDRFSGSKSGSSASLAITGLQAEDEADYYCQSYDRSLSGVVFGGGTQLTVLG
notes: domain: γ2 heavy chain constant region; also called Qβ#2 IgG2; pCB15-Qb#2-IgG2 product
B5: scFv-Qb#3-Fc (Fc fusion)
scFv: DADPAQAAELVMTQSPSSLSASVGDRVTITCRASQGVSRALAWYQQKPGNPPKLLIYDASNLQSGVPSRFSGGGSGTEFILTISSLQPEDFATYYCQQYNAYPWTFGQGTKLEIKGGSSRSSSSGGGGSGGGGQVQLQESGPGLVKPSETLSLTCTVSGGSISSGNYYWSWIRQTPEKGLEWLGYVHYTGSSKLNPSLKSRVTISVDTYTNQFSLSLSSMTAADTAVYYCARGKNCANDICYIGSWFDPWGQGTLVTVSSASTKGPSVTSGQAGRKLTHTCPPCPAPEAEGAPSVFLFPPKPKDTLMISRTPEVTCVVVDVSHEDPEVKFNWYVDGVEVHNAKTKPREEQYNSTYRVVSVLTVLHQDWLNGKEYKCKVSNKALPASIEKTISKAKGQPREPQVYTLPPSRDELTKNQVSLTCLVKGFYPSDIAVEWESNGQPENNYKTTPPVLDSDGSFFLYSKLTVDKSRWQQGNVFSCSVMHEALHNHYTQKSLSLSPGK
notes: The entry may contain the signal peptide; also called pCEP/scFvQb#3-Fc product
B6: scFv-Qb#8-Fc (Fc fusion)
scFv: DADPAQAAELVVTQEPSVSGAPGQSVTISCTGGSSNIGASYDVHWYKQLPGAAPILLIYANYIRPSGVPDRFSASKSGTSASLAITGLQAEDEADYYCQSYDSSLSGVVFGGGTKLTVLGGGSSRSSSSGGGGSGGGGQVQLQESGGGWVQSGGSLRLSCAASGFSFSSYAMSWVRQAPGKGLEWVSAMSPIGGSTFYADSVKGRFTISRDNSKNTLFLQMNSLRAEDTAVYYCAKDAVVTAVGLGRYFDLWGRGTLVSVSSASTKGPSVTSGQAGRKLTHTCPPCPAPEAEGAPSVFLFPPKPKDTLMISRTPEVTCVVVDVSHEDPEVKFNWYVDGVEVHNAKTKPREEQYNSTYRVVSVLTVLHQDWLNGKEYKCKVSNKALPASIEKTISKAKGQPREPQVYTLPPSRDELTKNQVSLTCLVKGFYPSDIAVEWESNGQPENNYKTTPPVLDSDGSFFLYSKLTVDKSRWQQGNVFSCSVMHEALHNHYTQKSLSLSPGK
notes: The entry may contain the signal peptide; also called pCEP/scFvQb#8-Fc product
B7: scFv-Qb#5-Fc (Fc fusion)
scFv: DADPAQAAELVLTQPPSVSGAPGQRVSISCTGSSSNIGARYDVHWYQQLPGTAPKLLIYGNTNRPSGVPDRFSGSKSGSSASLAITGLQAEDEADYYCQSYDRSLSGVVFGGGTKLTVLGGGSSRSSSSGGGGSGGGGEVQLVQSGPGLVKPSETLSLTCTVSGGSISSTSYSWGWIRQPPGKGLEWIATVSYSGRSYSNPSLKSRVTTSVDTSKNQFSLRLGSVTAADTAVYYCARLYYIWRSYHSGRFDYWGQGTLVPVSSASTKGPSVTSGQAGRKLTHTCPPCPAPEAEGAPSVFLFPPKPKDTLMISRTPEVTCVVVDVSHEDPEVKFNWYVDGVEVHNAKTKPREEQYNSTYRVVSVLTVLHQDWLNGKEYKCKVSNKALPASIEKTISKAKGQPREPQVYTLPPSRDELTKNQVSLTCLVKGFYPSDIAVEWESNGQPENNYKTTPPVLDSDGSFFLYSKLTVDKSRWQQGNVFSCSVMHEALHNHYTQKSLSLSPGK
notes: The entry may contain the signal peptide; also called pCEP/scFvQb#5-Fc product
B8: scFv-Qb#2-Fc (Fc fusion)
scFv: DADPAQAAELGLTQPPSVSGAPGQRVTISCTGSSSNIGRFDVHWYQQLPGTAPKLLIYGNTNRPSGVPDRFSGSKSGSSASLAITGLQAEDEADYYCQSYDRSLSGVVFGGGTQLTVLGGGSSRSSSSGGGGSGGGGEVQLLESGPGLVKPSETLSLTCTVSGGSISSGNYYWSWIRQTPEKGLEWLGYVHYTGSSKLNPSLKSRVTISVDTYTNQFSLSLSSMTAADTAVYYCARGKNCANDICYIGSWFDPWGQGTLVTVSSASTKGPSVTSGQAGRKLTHTCPPCPAPEAEGAPSVFLFPPKPKDTLMISRTPEVTCVVVDVSHEDPEVKFNWYVDGVEVHNAKTKPREEQYNSTYRVVSVLTVLHQDWLNGKEYKCKVSNKALPASIEKTISKAKGQPREPQVYTLPPSRDELTKNQVSLTCLVKGFYPSDIAVEWESNGQPENNYKTTPPVLDSDGSFFLYSKLTVDKSRWQQGNVFSCSVMHEALHNHYTQKSLSLSPGK
notes: also called pCEP/scFvQb#2-Fc product
B9: Qb#5 Fab fragment (Fab, V domains shown)
VH: EVQLVQSGPGLVKPSETLSLTCTVSGGSISSTSYSWGWIRQPPGKGLEWIATVSYSGRSYSNPSLKSRVTTSVDTSKNQFSLRLGSVTAADTAVYYCARLYYIWRSYHSGRFDYWGQGTLVPVSS
VL: ELVLTQPPSVSGAPGQRVSISCTGSSSNIGARYDVHWYQQLPGTAPKLLIYGNTNRPSGVPDRFSGSKSGSSASLAITGLQAEDEADYYCQSYDRSLSGVVFGGGTKLTVLG
notes: domain: γ2 heavy chain Fd region; The Fd part is from human γ2; also called Qβ#5 Fab; pCB15-Qb#5-Fab product; not shown: human κ light chain constant region (vector pCMV-LC)
B10: Qb#2 Fab fragment (Fab, V domains shown)
VH: EVQLLESGPGLVKPSETLSLTCTVSGGSISSGNYYWSWIRQTPEKGLEWLGYVHYTGSSKLNPSLKSRVTISVDTYTNQFSLSLSSMTAADTAVYYCARGKNCANDICYIGSWFDPWGQGTLVTVSS
VL: ELGLTQPPSVSGAPGQRVTISCTGSSSNIGRFDVHWYQQLPGTAPKLLIYGNTNRPSGVPDRFSGSKSGSSASLAITGLQAEDEADYYCQSYDRSLSGVVFGGGTQLTVLG
notes: domain: γ2 heavy chain Fd region; The Fd part is from human γ2; also called Qβ#2 Fab; pCB15-Qb#2-Fab product; not shown: human κ light chain constant region (vector pCMV-LC)
B11: Qb#3 Fab fragment (Fab, V domains shown)
VH: QVQLQESGPGLVKPSETLSLTCTVSGGSISSGNYYWSWIRQTPEKGLEWLGYVHYTGSSKLNPSLKSRVTISVDTYTNQFSLSLSSMTAADTAVYYCARGKNCANDICYIGSWFDPWGQGTLVTVSS
VL: ELVMTQSPSSLSASVGDRVTITCRASQGVSRALAWYQQKPGNPPKLLIYDASNLQSGVPSRFSGGGSGTEFILTISSLQPEDFATYYCQQYNAYPWTFGQGTKLEIK
notes: domain: γ2 heavy chain Fd region; The Fd part is from human γ2; also called Qβ#3 Fab; pCB15-Qb#3-Fab product; not shown: human κ light chain constant region (vector pCMV-LC)

Target: T1, Qβ (RNA bacteriophage Qbeta, UniProt P03615 2-133)
T1 construct: The description says it is a VLP of RNA bacteriophage Qbeta; also called Qbeta; VLP of RNA bacteriophage Qbeta
T1 sequence: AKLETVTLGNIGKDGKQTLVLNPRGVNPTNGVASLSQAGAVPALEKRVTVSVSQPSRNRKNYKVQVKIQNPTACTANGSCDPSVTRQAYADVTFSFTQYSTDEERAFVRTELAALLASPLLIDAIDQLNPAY
Test: ELISA, Qβ coated, purified IgG2; range of concentrations of half-maximal binding

First: B1
Second: B2
The EC50 of the first is higher: 0.456 to 1.1 nM for the first, 0.021 to 0.054 nM for the second. The second is the more potent here.

B3 and B4 cannot be ordered by EC50: 0.015 to 0.037 nM for the first, 0.025 to 0.056 nM for the second.

Target: T1, Qβ
Test: ELISA, Qβ coated, purified scFv-Fc titrated; concentration of half-maximal binding

First: B5
Second: B6
The EC50 of the first is 4.7-fold lower: 0.035 nM for the first, 0.163 nM for the second.

B7 and B8 are within 1.5-fold of each other in EC50: 0.052 nM for the first, 0.051 nM for the second.

Target: T1, Qβ
Test: ELISA, Qβ coated, purified Fab; range of concentrations of half-maximal binding

First: B9
Second: B10
The EC50 of the first is lower: 0.082 to 0.236 nM for the first, 0.261 to 0.454 nM for the second.

Binder B11 has an EC50 of 0.077 to 0.239 nM.
